The results in this text go back to patent publication US20210015937A1 (CRESCENDO BIOLOGICS, published 2021).

Experiment [1] concerns the target T1, human PD-1 expressed on cells (human, UniProt Q15116 25-288).
T1 construct: also called CHO human PD-1 cells; Jurkat reporter cell line expressing human PD-1
Briefly: FMAT inhibition of human Fc tagged PD-L1 binding to CHO human PD-1 cells. Here is the method:
All reagents and serially diluted VH were prepared in FMAT assay buffer. […] Plates were incubated for 2 hours at room temperature then fluorescence measured in the FL2 (502 nm-537 nm) and FL5 (677-800 nm) channels on the Mirrorball plate reader (TTP) following excitation at 488 nm and 640 nm. Data was expressed as a % of the total binding control (i.e. % control) after subtraction of the background signal determined from the non-specific binding control wells.

Experiment [2] has as its target T1, human PD-1 expressed on cells. Briefly: flow cytometry (Intellicyte) on anti-CD3/anti-CD28 stimulated human CD4+ T cells; His-tagged VH detected with anti-HIS biotin and streptavidin AlexaFluor488. How it is done: (§1) FIG. 2. CD4+ T cells were stimulated with anti-CD3 and anti-CD28. Cells were stained with HIS tagged VH plus anti-HIS tag labelled with biotin and streptavidin AlexaFluor488. Cells were analysed using Intellicyte® cytometer.
(§2) Binding onto human activated T cells was measured by cytometry. PBMC or magnetically isolated T cells were isolated from leukocytes cones and cells were incubated in 96 well plates coated with anti-CD3 (OKT3) at 5 μg/ml. Anti-CD28 (CD28.2) was added at 1 μg/ml in RPMI media and foetal bovine serum. After 72-96 hours, cells were harvested and stained using standard flow cytometry methods. […] Fluorescently labelled anti-CD4 and anti-CD8 were included in PBMC cultures and a live/dead dye. Stained cells were analysed using the IQue cytometer (Intellicyte). EC50 were calculated from the titration curve of median fluorescence of Humabody, gating on CD4+ or CD8+ cells if using mixed cells.
A general note: A flow cytometer gives signals particle by particle.

For experiment [3] the target is unchanged. As to the kind of experiment: cell-based or functional assay.
The target is the same in experiment [4]. As to the kind of experiment: cell-based or functional assay. This is another data set of the same source.
For experiment [5], the target named is T2, recombinant human LAG-3-Fc (human, UniProt P18627 23-450).
T2 construct: also called human LAG-3 (R&D Systems cat no. 2319-L3); LAG3 antigen
T2 sequence: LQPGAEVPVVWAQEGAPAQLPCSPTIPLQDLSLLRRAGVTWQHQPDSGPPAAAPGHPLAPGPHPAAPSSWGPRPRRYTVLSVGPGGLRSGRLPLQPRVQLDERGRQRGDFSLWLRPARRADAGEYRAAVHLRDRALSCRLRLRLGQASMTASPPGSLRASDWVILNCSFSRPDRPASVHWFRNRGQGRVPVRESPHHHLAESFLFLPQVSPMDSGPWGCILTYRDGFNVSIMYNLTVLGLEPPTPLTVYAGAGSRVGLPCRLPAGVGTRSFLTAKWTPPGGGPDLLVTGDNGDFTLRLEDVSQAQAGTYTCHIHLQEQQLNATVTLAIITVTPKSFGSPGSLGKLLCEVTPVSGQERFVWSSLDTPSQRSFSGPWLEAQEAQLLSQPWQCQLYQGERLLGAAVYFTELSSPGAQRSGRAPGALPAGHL
As to the kind of experiment: HTRF binding; His-tagged construct with LAG-3-Fc, anti-human-Fc cryptate and anti-His-D2. A general note: In TR-FRET formats the signal depends on donor and acceptor labels being close together.

Experiment [6] concerns the target T3, recombinant human PD-1 Fc chimera (human, UniProt Q15116 25-167).
T3 construct: Bought Fc chimera; also called human PD-1 (R&D systems cat no. 1086-PD); PD1 antigen
Briefly: HTRF binding; His-tagged construct with PD-1-Fc, anti-human-Fc cryptate and anti-His-D2. How it is done: Binding to PD-1 was measured by HTRF (homogeneous time resolved fluorescence). Serially diluted HIS-tagged constructs were prepared in assay buffer containing PBS, 0.1% BSA and 0.4M Potassium Fluoride. […] Time-resolved fluorescent emission at 620 nm and 665 nm was measured following excitation at 337 nm on the BMG PHERAstar plate reader. The HTRF ratio were calculated ((665 nm emission/620 nm emission)*10000) and the data corrected for (non-specific binding) to give the specific binding signal. EC50 were calculated from the titration curve (table 8 below).

Experiment [7] concerns the target T4, human LAG-3 expressed on cells (human, UniProt P18627 23-525).
T4 sequence: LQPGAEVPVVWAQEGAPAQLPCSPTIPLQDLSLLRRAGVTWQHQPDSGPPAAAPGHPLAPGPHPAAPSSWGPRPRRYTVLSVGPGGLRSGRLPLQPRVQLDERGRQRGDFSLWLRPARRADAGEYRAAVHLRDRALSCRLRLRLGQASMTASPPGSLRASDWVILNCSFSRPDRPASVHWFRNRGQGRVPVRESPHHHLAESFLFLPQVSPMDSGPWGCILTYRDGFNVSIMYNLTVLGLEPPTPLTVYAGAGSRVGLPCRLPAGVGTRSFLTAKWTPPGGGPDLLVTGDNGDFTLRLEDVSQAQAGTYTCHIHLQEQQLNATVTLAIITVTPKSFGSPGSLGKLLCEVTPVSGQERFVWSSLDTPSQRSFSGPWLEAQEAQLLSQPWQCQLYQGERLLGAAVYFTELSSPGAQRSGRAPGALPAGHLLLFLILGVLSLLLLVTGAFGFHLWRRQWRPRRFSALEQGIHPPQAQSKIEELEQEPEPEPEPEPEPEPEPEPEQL
Briefly: cell-based or functional assay.

In experiment [8] the target is T2, recombinant human LAG-3-Fc. As to the kind of experiment: BLI (Octet); human LAG-3-Fc captured on protein G biosensors, 1:1 fit. Here is the method: Binding kinetics for multi-valent and bispecific VH were also measured in real-time bio-layer interferometer based biosensor Octet (ForteBio). […] All the binding studies were performed in HBS-ET Octet kinetics buffer. Biosensors were washed in Octet kinetics buffer in between different steps. […] The contact time for each of the association steps was 150 seconds and the dissociation step was 400 seconds. […] To compare the constructs, kinetic association (kₐ) and dissociation (kd) rate constants were determined by processing and fitting the data to a 1:1 binding model using ForteBio Analysis software.
On the technique in general: Biolayer interferometry detects binding as a change in optical thickness at a sensor tip.

The target of experiment [9] is T5, LAG-3 and PD-1 on activated human T cells (human, UniProt P18627 23-525; Q15116 25-288).
T5 construct: also called huCD4+ T cells; huCD8+ T cells
T5 sequence (Q15116 25-288 limits assumed, one chain of several): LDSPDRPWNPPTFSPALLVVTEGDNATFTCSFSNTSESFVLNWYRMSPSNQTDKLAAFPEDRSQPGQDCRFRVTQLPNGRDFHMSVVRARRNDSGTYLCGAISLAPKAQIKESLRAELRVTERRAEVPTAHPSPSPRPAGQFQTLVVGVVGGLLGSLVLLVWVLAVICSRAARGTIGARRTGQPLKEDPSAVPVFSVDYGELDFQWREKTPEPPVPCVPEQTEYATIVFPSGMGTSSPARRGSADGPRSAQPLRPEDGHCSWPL
As to the kind of experiment: flow cytometry (Intellicyte) on anti-CD3/anti-CD28 stimulated human CD4+ T cells; His-tagged VH detected with anti-HIS biotin and streptavidin AlexaFluor488. How it is done:
as §1, §2

For experiment [10], the target named is T2, recombinant human LAG-3-Fc. As to the kind of experiment: competition ELISA; LAG-3-Fc pre-incubated with VH, binding to coated LSECtin. The text has this: (§3) The plate was blocked with 3% Marvel skimmed milk powder in PBS. […] Wash steps were done 3 times with PBS 0.05% Tween. Colour was developed using TMB and 0.5M sulphuric acid solution.
Experiment [11] addresses T2, recombinant human LAG-3-Fc. As to the kind of experiment: competition ELISA; LAG-3-Fc pre-incubated with VH, binding to coated Galectin-3.
From the text: as §3

T1 sequence (Q15116 25-288 limits assumed): as the sequence (Q15116 25-288 limits assumed, one chain of several) above
T3 sequence (Q15116 25-167 limits assumed, change not shown): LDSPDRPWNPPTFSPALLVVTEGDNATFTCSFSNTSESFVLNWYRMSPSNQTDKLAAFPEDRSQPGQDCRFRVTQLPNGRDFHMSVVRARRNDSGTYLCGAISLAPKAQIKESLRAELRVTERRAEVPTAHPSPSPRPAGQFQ

B1: VH 2.80 (VHH)
VHH: EVQLVESGGGLVKPGGSLRLSCAASGFTFSDSSMTWMRQAPGKGLEWVSYISSGGGVKFYADSVKGRFTISRDNAKNSLYLQMNSLRAEDTAVYYCAREAPLRLGESPHDAFDISGQGTMVTVSS
notes: Human VH single domain antibody against PD-1
The term IC50 denotes the concentration needed to halve the response being measured. B1 returned an IC50 in experiment [1] of 1.82 nM.

B2: VH 2.63 (VHH)
VHH: EVQLVESGGGLVKPGGSLRLSCAASGFTFSDSSMTWMRQAPGKGLEWVSYISSGGGVKFYTDSVKGRFTISRDNAKNSLYLQMNSLRADDTAVYYCAREAPLRLGESPHDAFDISGQGTMVTVSS
notes: as for B1
The term EC50 (read off the curve) denotes the midpoint of the concentration-response curve. As to B2, the “EC50 (read off the curve)” value in experiment [2] was roughly 2 nM. The IC50 in experiment [1] turned out to be 4.5 nM. For the same molecule, the “EC50 (M), NFAT-Luciferase Reporter Gene assay (PD-1:PD-L1)” value (“EC50 (M) … (PD-1:PD-L1)” below) in [3] came to 1.2e-08 M.

B3: VH 2.92 (VHH)
VHH: EVQLVESGGGLVKPGGSLRLSCAASGFTFSDESMTWMRQAPGKGLEWVSYISSGGGVKFYADSVKGRFTISRDNAKNSLYLQMNSLRAEDTAVYYCAREAPLRLGESPHDAFDISGQGTMVTVSS
notes: as for B1
In experiment [1], B3 yielded an IC50 of 2.8 nM. Besides, the “EC50 (M) … (PD-1:PD-L1)” value in experiment [3] came out at 1.4e-08 M.

B4: VH1.1-6GS-VH1.1-6GS-VH2.63-His6 (bispecific antibody)
chain: EVQLVESGGGVVRPGGSLRLSCSASGFTFDDYGMSWVRQAPGKGLEWVSGIHWNGGNSGYADSVKGRFTISRDNAKNSLYLQMNSLRAEDTALYYCARIPREDCSSASCYTDAIDFWGPGTMVTVSSGGGGSGGGGSGGGGSGGGGSGGGGSGGGGSEVQLVESGGGVVRPGGSLRLSCSASGFTFDDYGMSWVRQAPGKGLEWVSGIHWNGGNSGYADSVKGRFTISRDNAKNSLYLQMNSLRAEDTALYYCARIPREDCSSASCYTDAIDFWGPGTMVTVSSGGGGSGGGGSGGGGSGGGGSGGGGSGGGGSEVQLVESGGGLVKPGGSLRLSCAASGFTFSDSSMTWMRQAPGKGLEWVSYISSGGGVKFYTDSVKGRFTISRDNAKNSLYLQMNSLRADDTAVYYCAREAPLRLGESPHDAFDISGQGTMVTVSSAAAHHHHHH
notes: Single-chain fusion of two anti-LAG-3 VH 1.1 and one anti-PD-1 VH 2.63; The entry includes AAA-His6; also called 1.1-6GS-1.1-6GS-2.63
A word on the EC50: it is the concentration at which the effect is half-maximal. The term Kd denotes the constant that tells how readily two partners part at equilibrium. A word on the koff: it is the first-order rate constant of dissociation. Usually kon stands for a measure of how fast the partners come together. Consider B4, for which the “potency in the PD-1:PD-L1 NFAT-luciferase reporter assay, fold lower than monoclonal antibodies” value in [4] was greater than 30 fold. Besides, the EC50 in experiment [5] is 0.51 nM. In [6], the EC50 stood at 0.59 nM. Also, the “EC50 (M), NFAT-Luciferase Reporter Gene assay (LAG-3:MHCII)” value in experiment [7] is 3.3e-09 M. Also, the “EC50 (M) … (PD-1:PD-L1)” value in experiment [3] was 4.2e-08 M. Further, in experiment [8], the Kd was 0.399 nM, the koff is 0.000305 s⁻¹ and the kon was determined as 764000 M⁻¹ s⁻¹.

B5: VH1.1-6GS-VH1.1-9GS-VH2.63-His6 (bispecific antibody)
chain: EVQLVESGGGVVRPGGSLRLSCSASGFTFDDYGMSWVRQAPGKGLEWVSGIHWNGGNSGYADSVKGRFTISRDNAKNSLYLQMNSLRAEDTALYYCARIPREDCSSASCYTDAIDFWGPGTMVTVSSGGGGSGGGGSGGGGSGGGGSGGGGSGGGGSEVQLVESGGGVVRPGGSLRLSCSASGFTFDDYGMSWVRQAPGKGLEWVSGIHWNGGNSGYADSVKGRFTISRDNAKNSLYLQMNSLRAEDTALYYCARIPREDCSSASCYTDAIDFWGPGTMVTVSSGGGGSGGGGSGGGGSGGGGSGGGGSGGGGSGGGGSGGGGSGGGGSEVQLVESGGGLVKPGGSLRLSCAASGFTFSDSSMTWMRQAPGKGLEWVSYISSGGGVKFYTDSVKGRFTISRDNAKNSLYLQMNSLRADDTAVYYCAREAPLRLGESPHDAFDISGQGTMVTVSSAAAHHHHHH
notes: Single-chain fusion of two anti-LAG-3 VH 1.1 and one anti-PD-1 VH 2.63; The entry includes AAA-His6; also called 1.1-6GS-1.1-9GS-2.63
In the case of B5, the “potency in the PD-1:PD-L1 NFAT-luciferase reporter assay, fold lower than monoclonal antibodies” value in [4] is greater than 30 fold. For the same molecule, the EC50 in experiment [5] is 0.78 nM; in [6], 0.6 nM. In addition, the “EC50 (read off the curve)” value in experiment [9] was roughly 2 nM. Besides, the IC50 amounted to 54 nM in [10] and 38 nM in [11]. Besides, the “EC50 (M), NFAT-Luciferase Reporter Gene assay (LAG-3:MHCII)” value in [7] is 3.2e-09 M. The “EC50 (M) … (PD-1:PD-L1)” value in [3] was 3e-08 M. For the same molecule, the Kd in experiment [8] was determined as 0.397 nM. Further, the koff in experiment [8] stood at 0.000303 s⁻¹. Also, the kon in experiment [8] turned out to be 762000 M⁻¹ s⁻¹.
